Experimental data from publication PMC6838198, “Insights into the assembly and architecture of a Staufen-mediated mRNA decay (SMD)-competent mRNP” (Nature Communications, 2019).

T1: GST-UPF1CH (human, UniProt Q92900-2 115-272)
T1 construct: human UPF1, N-terminal cysteine-histidine-rich (CH) domain; also called UPF1CH domain; source: E. coli BL21 (DE3) STAR pRARE, purified (Ni-NTA, heparin, SEC)
T1 sequence (looked up): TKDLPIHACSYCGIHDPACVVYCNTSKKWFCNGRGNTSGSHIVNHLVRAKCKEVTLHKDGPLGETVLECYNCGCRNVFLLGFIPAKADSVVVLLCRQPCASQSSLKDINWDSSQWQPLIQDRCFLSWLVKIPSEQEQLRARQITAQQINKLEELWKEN


Key:
[1] = target: Stau1 dsRBD2-3-4-dd (human); assay: SEC-MALS; about 350 µg of each Stau1 construct on Superdex 200 10/300; 20 mM HEPES pH 7.5, 150 mM NaCl, 0.02% NaN3; dimer to monomers
[2] = target: the molecule itself; assay: SEC; analytical SEC of full-length Stau1 alone; monomer and dimer peaks
[3] = target: GST-UPF1 (CH domain and helicase core) (human) (UniProt Q92900); assay: pull-down; as the GST pull-down, with UPF2 added as a third purified protein
[4] = target: T1, GST-UPF1CH; assay: as above; settings: both partners purified
[5] = target: T1, GST-UPF1CH; assay: pull-down; GST-tagged bait and prey mixed in equal amounts, 4 °C 16 h, Glutathione Sepharose; 20 mM HEPES pH 7.5, 150 mM NaCl, 10% glycerol, 0.1% NP-40; eluted with 20 mM glutathione, SDS-PAGE and Coomassie; bands quantified with ImageJ; settings: both partners purified

stoichiometry N [1]	fold increase of co-precipitated Stau1 on addition of UPF2 [3]	fold increase of co-precipitated Stau1 on addition of UPF2 [4]	fold lower amount bound than UPF2s [5]	Molecule	stoichiometry N [2]
2				Stau1 dsRBD2-3-4-dd (domain or fragment)	
	3.3 fold	2.3 fold	3.3 fold	Stau1, full length (Stau1_63, the longer isoform, 577 residues) (natural protein, human, UniProt O95793 1-577, looked up, human Stau1, longer isoform Stau1_63, 577 residues; In rapid equilibrium between monomer and dimer in solution; source: E. coli BL21 (DE3) STAR pRARE, purified (Ni-NTA, heparin, SEC)) MSQVQVQVQNPSAALSGSQILNKNQSLLSQPLMSIPSTTSSLPSENAGRPIQNSALPSASITSTSAAAESITPTVELNALCMKLGKKPMYKPVDPYSRMQSTYNYNMRGGAYPPRYFYPFPVPPLLYQVELSVGGQQFNGKGKTRQAAKHDAAAKALRILQNEPLPERLEVNGRESEEENLNKSEISQVFEIALKRNLPVNFEVARESGPPHMKNFVTKVSVGEFVGEGEGKSKKISKKNAAIAVLEELKKLPPLPAVERVKPRIKKKTKPIVKPQTSPEYGQGINPISRLAQIQQAKKEKEPEYTLLTERGLPRRREFVMQVKVGNHTAEGTGTNKKVAKRNAAENMLEILGFKVPQAQPTKPALKSEEKTPIKKPGDGRKVTFFEPGSGDENGTSNKEDEFRMPYLSHQQLPAGILPMVPEVAQAVGVSQGHHTKDFTRAAPNPAKATVTAMIARELLYGGTSPTAETILKNNISSGHVPHGPLTRPSEQLDYLSRVQGFQVEYKDFPKNNKNEFVSLINCSSQPPLISHGIGKDVESCHDMAALNILKLLSELDQQSTEMPRTGNGPMSVCGRC	2
